Values quoted from earlier work as cited in paper PMC9406010.

Experiments:
GPR1 (Homo sapiens) = GPR1 (Homo sapiens) (UniProt P46091)
CCRL2 (Homo sapiens) = CCRL2 (Homo sapiens) (UniProt O00421)
CMKLR1 (Homo sapiens) = CMKLR1 (Homo sapiens) (UniProt Q99788)
Sequence of CMKLR1 (Homo sapiens) (Q99788 whole entry): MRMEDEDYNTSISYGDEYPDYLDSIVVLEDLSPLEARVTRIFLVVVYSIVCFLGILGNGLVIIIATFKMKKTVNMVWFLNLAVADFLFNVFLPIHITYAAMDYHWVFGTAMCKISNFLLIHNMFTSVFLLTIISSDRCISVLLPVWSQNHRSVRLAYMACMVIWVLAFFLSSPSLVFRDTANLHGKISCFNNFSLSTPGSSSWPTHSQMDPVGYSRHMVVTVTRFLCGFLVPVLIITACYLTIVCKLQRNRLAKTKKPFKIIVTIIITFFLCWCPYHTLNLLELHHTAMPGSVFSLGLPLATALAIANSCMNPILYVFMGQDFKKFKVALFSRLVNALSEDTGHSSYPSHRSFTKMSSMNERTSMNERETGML

Sequence of Chemerin (Q99969 21-157): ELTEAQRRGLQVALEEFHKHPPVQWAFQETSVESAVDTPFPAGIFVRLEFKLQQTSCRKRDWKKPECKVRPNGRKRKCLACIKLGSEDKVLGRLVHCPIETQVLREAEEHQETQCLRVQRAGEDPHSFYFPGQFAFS
Sequence of CCRL2 (Homo sapiens) (O00421 whole entry): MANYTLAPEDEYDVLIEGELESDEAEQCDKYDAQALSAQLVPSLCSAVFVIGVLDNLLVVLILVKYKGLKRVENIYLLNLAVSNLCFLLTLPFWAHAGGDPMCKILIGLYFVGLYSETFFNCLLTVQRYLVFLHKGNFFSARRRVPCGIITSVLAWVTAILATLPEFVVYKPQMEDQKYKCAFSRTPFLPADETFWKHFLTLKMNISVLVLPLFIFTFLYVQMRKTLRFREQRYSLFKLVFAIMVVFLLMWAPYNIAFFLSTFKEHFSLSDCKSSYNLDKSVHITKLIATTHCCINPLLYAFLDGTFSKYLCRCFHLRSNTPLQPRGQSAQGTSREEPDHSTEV
Sequence of GPR1 (Homo sapiens) (P46091 whole entry): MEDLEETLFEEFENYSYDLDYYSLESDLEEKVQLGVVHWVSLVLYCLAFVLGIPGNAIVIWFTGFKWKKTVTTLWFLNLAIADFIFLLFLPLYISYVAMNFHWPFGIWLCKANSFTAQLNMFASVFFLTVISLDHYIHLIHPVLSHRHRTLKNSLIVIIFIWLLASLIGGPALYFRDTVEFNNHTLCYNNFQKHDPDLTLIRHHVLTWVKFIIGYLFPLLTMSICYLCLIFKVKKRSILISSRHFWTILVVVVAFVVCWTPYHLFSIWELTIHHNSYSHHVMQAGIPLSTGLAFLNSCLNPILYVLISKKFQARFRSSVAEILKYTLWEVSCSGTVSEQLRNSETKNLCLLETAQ

Question: With Chemerin (from UniProt Q99969) as the substance, how does the Kd (GPR1 (Homo sapiens)) read?
Answer: 0.21 nM

Question: What about the Kd (CCRL2 (Homo sapiens)) of the same substance?
Answer: 2.35 nM

Question: What about the Kd (CMKLR1 (Homo sapiens)) of the same substance?
Answer: 0.88 nM
